Tests used:
[1] = test system: App/Aplp1 dKO primary hippocampal neurons; assay: mEPSCs & mIPSCs in App/Aplp1 dKO primary hippocampal cultures; assay type: cell-based, mouse
Experimental: mEPSCs & mIPSCs are measured in cultured primary hippocampal neurons at baseline and following acute application of agonists. Excitatory terminals selectively express the sushi domain-containing GABABR1a isoform (ref18), where it functions to inhibit neurotransmitter release (ref 24). Acute exposure of primary hippocampal neurons from wild type mice to 30μM baclofen, a GABABR agonist, or 250 nM sAPPα (Fc cleaved) reduces the frequency of miniature excitatory postsynaptic currents (mEPSCs) by 68% (FIG. 8 a,b) and 39% (FIG. 8 c,d), respectively, with no effect on mEPSC amplitude (FIG. 8e). […]
Single neurons from wild type or APP/APLP1 null mutant embryos (E18) were recorded within the large neuronal network at DIV 12-15. […] Spontaneous events were detected using Mini Analysis program (Synaptosoft). mEPSCs and mIPSCs were separated on the basis of their distinct decay kinetics, using a threshold of 5 ms47. Baseline was determined from an average of 60 sec of recordings prior to protein or drug treatment. Effect of treatment was determined from an average of 30 sec recordings after 140 sec of protein or drug treatment.

[2] = test system: primary hippocampal neurons; assay: mEPSCs & mIPSCs in cultured primary hippocampal neurons (wild type); assay type: cell-based, mouse
Experimental: mEPSCs & mIPSCs are measured in cultured primary hippocampal neurons at baseline and following acute application of agonists. Excitatory terminals selectively express the sushi domain-containing GABABR1a isoform (ref18), where it functions to inhibit neurotransmitter release (ref 24). Acute exposure of primary hippocampal neurons from wild type mice to 30μM baclofen, a GABABR agonist, or 250 nM sAPPα (Fc cleaved) reduces the frequency of miniature excitatory postsynaptic currents (mEPSCs) by 68% (FIG. 8 a,b) and 39% (FIG. 8 c,d), respectively, with no effect on mEPSC amplitude (FIG. 8e). […] Acute application of 30 μM baclofen or 250 nM purified sAPPα reduces the frequency of miniature inhibitory postsynaptic currents (mIPSCs) by 63% (FIG. 8a, 9a) and 44% (FIG. 8c, 9b), respectively, which is blocked by pretreatment with the GABABR antagonist CGP55845 (CGP, 5 μM) (FIG. 8f, 9d). Application of sAPPα causes a minor (14%) reduction on mIPSC amplitude (FIG. 8e, 9c). […] Baclofen is known to reduce the frequencies of mEPSCs and mIPSCs, which we have also confirmed. […] To confirm that the agonist is acting through GABABR1a, the agonist is tested in cultures with shRNA mediated knockdown of GABABR1a or antisense oligonucleotides mediated exon skipping of the exon encoding the Sushi domain 1 of GABABR1a. Antagonists are tested by treatment in combination with the agonist, Baclofen. […] As an antagonist we test an antibody against the sushi domain sequence (SEQ ID No: 5): […] SWTDMDTPSRCV. An antibody specifically binding to this domain which acts as an antagonist increases the frequencies of mEPSCs and mIPSCs. sAPPα also reduces mEPSC and mIPSC frequency in App/Aplp1 dKO cultures (FIG. 8j, 9f), excluding the possibility that sAPPα interferes with a complex of full-length APP and GABABR1 to exert its effect on GABABR signaling.
Hippocampal neurons were cultured from E18 C57/B16 wild type mice or APP/APLP1 dKO mice (provided by Ulrike Muller46) and plated on poly-D-lysine (Millipore), and laminin (Invitrogen) coated coverslips (Nalge Nunc International). Neurons were maintained in Neurobasal medium (Invitrogen) supplemented with B27, glucose, glutamax, penicillin/streptomycin (Invitrogen) and 25 μM β-mercaptoethanol.
Single neurons from wild type or APP/APLP1 null mutant embryos (E18) were recorded within the large neuronal network at DIV 12-15. The intracellular whole-cell pipette medium contained (in mM): 136 KCl, 18 HEPES, 4 Na-ATP, 4.6 MgCl2, 15 Creatine Phosphate, 1 EGTA and 50 U/ml Phospocreatine Kinase (300 mOsm, pH 7.30). Regular external solution contained 2 mM/2 mM Ca2+/Mg2+(in mM: 140 NaCl, 2.4 KCl, 2 CaCl2), 2 MgCl2, 10 HEPES, 14 Glucose (300 mOsm, pH 7.30)) and TTX (1 μM). Pharmacological reagents (30 μM baclofen, 5 μM CGP), sAPLP1, full length sAPP and sAPP derived peptides (250 nM each) were bath applied (dissolved in external medium described above) using a separate gravity driven application inlet. Recordings were done in whole cell voltage clamp configuration at −70 mV with a double EPC-10 amplifier (HEKA Elektronik) under control of Patchmaster v2×32 software (HEKA Elektronik). Currents were low-pass filtered at 3 kHz and stored at 20 kHz. Patch pipettes were pulled from borosilicate glass using a multi-step puller (P-1000; Sutter Instruments). Pipette resistance ranged from 3 to 5 MΩ and was compensated to 75-80%. Only cells with series resistances <15 MΩ were included in analysis. All recordings were done at room temperature. Spontaneous events were detected using Mini Analysis program (Synaptosoft). mEPSCs and mIPSCs were separated on the basis of their distinct decay kinetics, using a threshold of 5 ms47. Baseline was determined from an average of 60 sec of recordings prior to protein or drug treatment. Effect of treatment was determined from an average of 30 sec recordings after 140 sec of protein or drug treatment.

[3] = target: T1, sushi1 domain of GABABR1a (Homo sapiens, UniProt Q9UBS5); assay: Isothermal titration calorimetry (ITC) with purified sushi1; assay type: binding; conditions: 25° C., read-out: dissociation constant (KD)
T1 construct: made in house
Experimental: We first determined which GABAB subunit and isoform sAPPα bound. The GABABR is comprised of two subunits, the GABABR1 and the GABABR2 subunit. GABABR1 is present as two main isoforms (1a and 1b), with the only difference between these isoforms being the presence of two protein-binding sushi repeats in the ectodomain of GABABR1a (FIG. 1A-B). […] The sequence of the Sushi domain 1 is […].
All ITC experiments were carried out on a MicroCal iTC200 system. For ITC experiments involving APP constructs expressed in HEK293 cells, the purified GABABR1a-Sushi1 domain, sAPPα, CuBDAcD, AcD and CuBD constructs were buffer-exchanged by size exclusion chromatography in 20 mM Na-HEPES pH 7.0, 150 mM NaCl supplemented with 5 mM CaCl2. Concentrated samples were diluted and degassed before the experiment at the concentrations reported in the FIG. legends. sAPP fragments (all of them at 30 μM) were placed in the MicroCal sample cell and matching buffer was placed in the reference cell. Sushi1 (300 μM) was in the syringe and was injected into the cell in a series of 1 μL injections at 25° C. All the datasets were subtracted with a reference data consisting of serial injections of Sushi1 in the cell, containing buffer only under the same conditions. For ITC experiments involving synthetic APP peptides, the Sushi-1 protein was dialysed overnight to PBS buffer. […]

T1 sequence (Q9UBS5 26-97): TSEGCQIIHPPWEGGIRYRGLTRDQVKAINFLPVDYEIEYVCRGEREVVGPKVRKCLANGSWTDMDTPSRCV

B1: sAPPα: soluble amyloid precursor protein α ectodomain; mouse APP695 18-612aa, Fc tag cleaved (protein)
chain: LEVPTDGNAGLLAEPQIAMFCGKLNMHMNVQNGKWESDPSGTKTCIGTKEGILQYCQEVYPELQITNVVEANQPVTIQNWCKRGRKQCKTHTHIVIPYRCLVGEFVSDALLVPDKCKFLHQERMDVCETHLHWHTVAKETCSEKSTNLHDYGMLLPCGIDKFRGVEFVCCPLAEESDSVDSADAEEDDSDVWWGGADTDYADGGEDKVVEVAEEEEVADVEEEEADDDEDVEDGDEVEEEAEEPYEEATERTTSTATTTTTTTESVEEVVRVPTTAASTPDAVDKYLETPGDENEHAHFQKAKERLEAKHRERMSQVMREWEEAERQAKNLPKADKKAVIQHFQEKVESLEQEAANERQQLVETHMARVEAMLNDRRRLALENYITALQAVPPRPHHVFNMLKKYVRAEQKDRQHTLKHFEHVRMVDPKKAAQIRSQVMTHLRVIYERMNQSLSLLYNVPAVAEEIQDEVDELLQKEQNYSDDVLANMISEPRISYGNDALMPSLTETKTTVELLPVNGEFSLDDLQPWHPFGVDSVPANTENEVEPVDARPAADRGLTTRPGSGLTNIKTEEISEVKMDAEFGHDSGFEVRHQK
effect on mEPSC frequency [1]: reduces | effect on mIPSC frequency [1]: reduces | reduction of mIPSC amplitude ([2]; 250 nM sAPPα): 14% | effect on mEPSC amplitude ([2]; 250 nM, acute exposure): no effect | reduction of mIPSC frequency ([2]; acute application, 30 μM baclofen, 250 nM proteins): 44% | reduction of mEPSC frequency ([2]; acute exposure, 30 μM baclofen or 250 nM sAPPα (Fc cleaved), wild type mice): 39% | Kd [3]: 431 nM
